In general, Kd refers to the constant that tells how readily two partners part at equilibrium. A lower Kd goes with a tighter complex.

Some targets named below: 180; 163; 170; 172; 145; 176; 148; 182; 157; 150; 175; 162; 147; 177; 165; 146; 151; 160; 161; 149; 181.
What all share (experiment): SPR
The target in the next test is T1, wild-type mouse IL-2Rβ (UniProt P16297 27-240).
T1 chain: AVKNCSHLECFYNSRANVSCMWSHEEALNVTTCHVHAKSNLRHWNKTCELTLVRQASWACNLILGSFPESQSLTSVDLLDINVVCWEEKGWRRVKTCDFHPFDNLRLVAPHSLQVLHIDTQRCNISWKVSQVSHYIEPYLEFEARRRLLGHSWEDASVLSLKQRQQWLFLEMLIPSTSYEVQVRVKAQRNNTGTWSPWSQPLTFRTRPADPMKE

B1: orthoIL-2Rβ (receptor)
chain: AVKNCSHLECFYNSRANVSCMWSHEEALNVTTCHVHAKSNLRHWNKTCELTLVRQASWACNLILGSFPESQSLTSVDLLDINVVCWEEKGWRRVKTCDFHPFDNLRLVAPHSLQVLHIDTQRCNISWKVSQVSDFIEPYLEFEARRRLLGHSWEDASVLSLKQRQQWLFLEMLIPSTSYEVQVRVKAQRNNTGTWSPWSQPLTFRTRPADPMKE
With B1, the Kd in the test with 180 came out at 6 µM; with 163, 1000 nM; with 170, 2000 nM; with 172, 2000 nM; with 145, 4 µM; with 176 it was 1000 nM. Besides, the Kd with 148 stood at 4 µM; with 182, 3000 nM; with 157 it was 4 µM; with 150, 3000 nM; with 175 it was 4 µM; with 162, 3000 nM. Moreover, the Kd was 8 µM in the test with 147; 3000 nM in the test with 177; 1000 nM with 165; 600 nM with 146; 2000 nM with 151; 1000 nM with 160. The Kd was 3000 nM in the test with 161, 4 µM in the test with 149 and 5 µM with 181.

B2: wild-type mouse IL-2 (ligand)
chain: APTSSSTSSSTAEAQQQQQQQQQQQQHLEQLLMDLQELLSRMENYRNLKLPRMLTFKFYLPKQATELKDLQCLEDELGPLRHVLDLTQSKSFQLEDAENFISNIRVTVVKLKGSDNTFECQFDDESATVVDFLRRWIAFCQSIISTSPQ
As for B2, the Kd with wild-type mouse IL-2Rβ is 4 µM.
